Among the data in publication PMC12102759 (2025) are screen value values, retold here.

To fix the notation:
B1: SH3BP2 peptide 410-425 (SH3 domain-binding protein 2), 16-mer library wild type / TNKS ANK (TNKS 12 ANK repeats, residues 174-649) (parent complex)
chain 1: LPHLQRSPPDGQSFRS
chain 2: TGVPAVSGALRELLEACRNGDVSRVKRLVDAANVNAKDMAGRKSSPLHFAAGFGRKDVVEHLLQMGANVHARDDGGLIPLHNACSFGHAEVVSLLLCQGADPNARDNWNYTPLHEAAIKGKIDVCIVLLQHGADPNIRNTDGKSALDLADPSAKAVLTGEYKKDELLEAARSGNEEKLMALLTPLNVNCHASDGRKSTPLHLAAGYNRVRIVQLLLQHGADVHAKDKGGLVPLHNACSYGHYEVTELLLKHGACVNAMDLWQFTPLHEAASKNRVEVCSLLLSHGADPTLVNCHGKSAVDMAPTPELRERLTYEFKGHSLLQAAREADLAKVKKTLALEIINFKQPQSHETALHCAVASLHPKRKQVTELLLRKGANVNEKNKDFMTPLHVAAERAHNDVMEVLHKHGAKMNALDTLGQTALHRAALAGHLQTCRLLLSYGSDPSIISLQGFTAAQMGNEAVQQILSESTPIRTSD

In the assay the parent is B1. Description: proteomic peptide phage display deep mutational scan (ProP-PD DMS): M13 P8 16-mer library selected against immobilised GST-tagged bait for four days (rounds), NGS of the eluted pools per day and pseudo-replica; bait immobilised on MaxiSorp plates (10 µg), library pre-cleared on GST, 2 h binding at 4 °C, five washes; one round per day, days 1-4; value from days 2 and 3.
As to chain 1 Q12M, the screen value is 0.00481 average fractional NGS count over selection days 2 and 3 (reads of this peptide / all reads for the bait, averaged over ….
chain 1 Q12E: the screen value was 0.000127 average fractional NGS count over selection days 2 and 3 (reads of this peptide / all reads for the bait, averaged over ….
For the variant chain 1 Q12V, the screen value was 0.000654 average fractional NGS count over selection days 2 and 3 (reads of this peptide / all reads for the bait, averaged over ….
With chain 1 Q12G, the screen value was 0.000919 average fractional NGS count over selection days 2 and 3 (reads of this peptide / all reads for the bait, averaged over ….
For the variant chain 1 Q12S, the screen value was 0.000969 average fractional NGS count over selection days 2 and 3 (reads of this peptide / all reads for the bait, averaged over ….
With chain 1 Q12T, the screen value is 0.00582 average fractional NGS count over selection days 2 and 3 (reads of this peptide / all reads for the bait, averaged over ….
For the variant chain 1 Q12W, the screen value was 0.000548 average fractional NGS count over selection days 2 and 3 (reads of this peptide / all reads for the bait, averaged over ….
For chain 1 Q12F, the screen value was 0.000426 average fractional NGS count over selection days 2 and 3 (reads of this peptide / all reads for the bait, averaged over ….
Under chain 1 P2T stands 0.00034 average fractional NGS count over selection days 2 and 3 (reads of this peptide / all reads for the bait, averaged over ….
Take chain 1 P2H: the screen value was 0.000416 average fractional NGS count over selection days 2 and 3 (reads of this peptide / all reads for the bait, averaged over ….
Consider chain 1 P2E, for which the screen value is 0.000462 average fractional NGS count over selection days 2 and 3 (reads of this peptide / all reads for the bait, averaged over ….
As to chain 1 P2M, the screen value is 0.000224 average fractional NGS count over selection days 2 and 3 (reads of this peptide / all reads for the bait, averaged over ….
On to chain 1 P2L, for which the screen value is 0.000238 average fractional NGS count over selection days 2 and 3 (reads of this peptide / all reads for the bait, averaged over ….
For chain 1 P2D, the screen value was 0.00379 average fractional NGS count over selection days 2 and 3 (reads of this peptide / all reads for the bait, averaged over ….
chain 1 L1V: the screen value was 0.00338 average fractional NGS count over selection days 2 and 3 (reads of this peptide / all reads for the bait, averaged over ….
For chain 1 L1N the value was 0.0011 average fractional NGS count over selection days 2 and 3 (reads of this peptide / all reads for the bait, averaged over …; for chain 1 L1H, 0.00559 average fractional NGS count over selection days 2 and 3 (reads of this peptide / all reads for the bait, averaged over …; for chain 1 L1D, 0.00232 average fractional NGS count over selection days 2 and 3 (reads of this peptide / all reads for the bait, averaged over ….
Turning to chain 1 L1K, the screen value is 0.000567 average fractional NGS count over selection days 2 and 3 (reads of this peptide / all reads for the bait, averaged over ….
As to chain 1 L1S, the screen value is 0.00146 average fractional NGS count over selection days 2 and 3 (reads of this peptide / all reads for the bait, averaged over ….
For chain 1 L1A the value was 0.00143 average fractional NGS count over selection days 2 and 3 (reads of this peptide / all reads for the bait, averaged over ….
Under chain 1 L1E stands 0.00294 average fractional NGS count over selection days 2 and 3 (reads of this peptide / all reads for the bait, averaged over ….
Under chain 1 L1F stands 0.000588 average fractional NGS count over selection days 2 and 3 (reads of this peptide / all reads for the bait, averaged over ….
On to chain 1 L1Y, for which the screen value was 0.00138 average fractional NGS count over selection days 2 and 3 (reads of this peptide / all reads for the bait, averaged over ….
For chain 1 G11N, the screen value was 0.000201 average fractional NGS count over selection days 2 and 3 (reads of this peptide / all reads for the bait, averaged over ….
Consider chain 1 P8D, for which the screen value is 0.00888 average fractional NGS count over selection days 2 and 3 (reads of this peptide / all reads for the bait, averaged over ….
Consider chain 1 P8S, for which the screen value is 0.000677 average fractional NGS count over selection days 2 and 3 (reads of this peptide / all reads for the bait, averaged over ….
As to chain 1 P8N, the screen value is 0.0021 average fractional NGS count over selection days 2 and 3 (reads of this peptide / all reads for the bait, averaged over ….
For chain 1 P8H the value was 0.000697 average fractional NGS count over selection days 2 and 3 (reads of this peptide / all reads for the bait, averaged over ….
Regarding chain 1 P8V, the screen value is 0.00324 average fractional NGS count over selection days 2 and 3 (reads of this peptide / all reads for the bait, averaged over ….
Consider chain 1 P8T, for which the screen value was 0.00538 average fractional NGS count over selection days 2 and 3 (reads of this peptide / all reads for the bait, averaged over ….
chain 1 F14G: the screen value is 0.000932 average fractional NGS count over selection days 2 and 3 (reads of this peptide / all reads for the bait, averaged over ….
As for chain 1 F14Q, the screen value is 0.000155 average fractional NGS count over selection days 2 and 3 (reads of this peptide / all reads for the bait, averaged over ….
In the case of chain 1 F14M, the screen value is 0.0018 average fractional NGS count over selection days 2 and 3 (reads of this peptide / all reads for the bait, averaged over ….
For chain 1 F14H, the screen value was 0.000634 average fractional NGS count over selection days 2 and 3 (reads of this peptide / all reads for the bait, averaged over ….
For the variant chain 1 F14T, the screen value is 0.0022 average fractional NGS count over selection days 2 and 3 (reads of this peptide / all reads for the bait, averaged over ….
With chain 1 F14N, the screen value was 0.000125 average fractional NGS count over selection days 2 and 3 (reads of this peptide / all reads for the bait, averaged over ….
For chain 1 F14L the value was 0.000394 average fractional NGS count over selection days 2 and 3 (reads of this peptide / all reads for the bait, averaged over …; for chain 1 F14I, 0.00763 average fractional NGS count over selection days 2 and 3 (reads of this peptide / all reads for the bait, averaged over …; for chain 1 F14E, 0.00017 average fractional NGS count over selection days 2 and 3 (reads of this peptide / all reads for the bait, averaged over ….
On to chain 1 F14D, for which the screen value is 0.000786 average fractional NGS count over selection days 2 and 3 (reads of this peptide / all reads for the bait, averaged over ….
As for chain 1 F14A, the screen value is 0.0212 average fractional NGS count over selection days 2 and 3 (reads of this peptide / all reads for the bait, averaged over ….
As to chain 1 F14S, the screen value is 0.00286 average fractional NGS count over selection days 2 and 3 (reads of this peptide / all reads for the bait, averaged over ….
For chain 1 H3M the value was 0.0014 average fractional NGS count over selection days 2 and 3 (reads of this peptide / all reads for the bait, averaged over …; for chain 1 H3Q, 0.000537 average fractional NGS count over selection days 2 and 3 (reads of this peptide / all reads for the bait, averaged over …; for chain 1 H3W, 0.000238 average fractional NGS count over selection days 2 and 3 (reads of this peptide / all reads for the bait, averaged over ….
As for chain 1 H3F, the screen value is 0.000397 average fractional NGS count over selection days 2 and 3 (reads of this peptide / all reads for the bait, averaged over ….
Turning to chain 1 H3V, the screen value was 0.00187 average fractional NGS count over selection days 2 and 3 (reads of this peptide / all reads for the bait, averaged over ….
Under chain 1 H3N stands 0.000146 average fractional NGS count over selection days 2 and 3 (reads of this peptide / all reads for the bait, averaged over …; under chain 1 H3I, 0.000522 average fractional NGS count over selection days 2 and 3 (reads of this peptide / all reads for the bait, averaged over ….
As for chain 1 Q5L, the screen value is 0.000257 average fractional NGS count over selection days 2 and 3 (reads of this peptide / all reads for the bait, averaged over ….
Take chain 1 Q5A: the screen value was 0.000231 average fractional NGS count over selection days 2 and 3 (reads of this peptide / all reads for the bait, averaged over ….
In the case of chain 1 Q5Y, the screen value was 0.00141 average fractional NGS count over selection days 2 and 3 (reads of this peptide / all reads for the bait, averaged over ….
Turning to chain 1 Q5H, the screen value is 0.0031 average fractional NGS count over selection days 2 and 3 (reads of this peptide / all reads for the bait, averaged over ….
As for chain 1 Q5N, the screen value is 0.000679 average fractional NGS count over selection days 2 and 3 (reads of this peptide / all reads for the bait, averaged over ….
For chain 1 Q5M the value was 0.00158 average fractional NGS count over selection days 2 and 3 (reads of this peptide / all reads for the bait, averaged over ….
For chain 1 Q5W the value was 0.000468 average fractional NGS count over selection days 2 and 3 (reads of this peptide / all reads for the bait, averaged over ….
On to chain 1 Q5G, for which the screen value was 0.00123 average fractional NGS count over selection days 2 and 3 (reads of this peptide / all reads for the bait, averaged over ….
In the case of chain 1 Q5T, the screen value was 0.00193 average fractional NGS count over selection days 2 and 3 (reads of this peptide / all reads for the bait, averaged over ….
For chain 1 Q5F the value was 0.00256 average fractional NGS count over selection days 2 and 3 (reads of this peptide / all reads for the bait, averaged over …; for chain 1 S13I, 0.0065 average fractional NGS count over selection days 2 and 3 (reads of this peptide / all reads for the bait, averaged over …; for chain 1 S13E, 0.00174 average fractional NGS count over selection days 2 and 3 (reads of this peptide / all reads for the bait, averaged over ….
Under chain 1 S13N stands 0.000503 average fractional NGS count over selection days 2 and 3 (reads of this peptide / all reads for the bait, averaged over …; under chain 1 S13F, 0.000366 average fractional NGS count over selection days 2 and 3 (reads of this peptide / all reads for the bait, averaged over ….
Regarding chain 1 S13H, the screen value is 0.00169 average fractional NGS count over selection days 2 and 3 (reads of this peptide / all reads for the bait, averaged over ….
Turning to chain 1 S13P, the screen value was 0.00144 average fractional NGS count over selection days 2 and 3 (reads of this peptide / all reads for the bait, averaged over ….
Under chain 1 S13V stands 0.00486 average fractional NGS count over selection days 2 and 3 (reads of this peptide / all reads for the bait, averaged over …; under chain 1 S13A, 0.000295 average fractional NGS count over selection days 2 and 3 (reads of this peptide / all reads for the bait, averaged over …; under chain 1 L4W, 0.00434 average fractional NGS count over selection days 2 and 3 (reads of this peptide / all reads for the bait, averaged over ….
In the case of chain 1 L4T, the screen value was 0.000821 average fractional NGS count over selection days 2 and 3 (reads of this peptide / all reads for the bait, averaged over ….
For chain 1 L4P, the screen value was 0.00111 average fractional NGS count over selection days 2 and 3 (reads of this peptide / all reads for the bait, averaged over ….
In the case of chain 1 L4Q, the screen value was 0.000264 average fractional NGS count over selection days 2 and 3 (reads of this peptide / all reads for the bait, averaged over ….
As to chain 1 L4G, the screen value is 0.000123 average fractional NGS count over selection days 2 and 3 (reads of this peptide / all reads for the bait, averaged over ….
Under chain 1 L4S stands 0.000672 average fractional NGS count over selection days 2 and 3 (reads of this peptide / all reads for the bait, averaged over ….
For chain 1 L4M the value was 0.0015 average fractional NGS count over selection days 2 and 3 (reads of this peptide / all reads for the bait, averaged over ….
